Assay results published in the supplement of paper PMC10567573.

B1: NET1 (parent)
chain: PTPAKRRSSALWSEMLDITMKESL

Variants of: B1
Experiment: protein stability index of a GFP-peptide fusion (GPS, HEK-293T) (PSI 1-6); higher = more stable
Conditions: c terminus: a fixed tail appended
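Note: lentivirally expressed fusions sorted by FACS into six bins by GFP to DsRed ratio, PSI derived from sequencing read proportions per bin multiplied by bin number.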

First: PTPAKRRSSALWSEMLDITPKESL [M20P]
Second: PTPAKRRSSALWSEMLDITKKESL [M20K]
The protein stability index of the first is higher: 3.25 for the first, 2.75 for the second.

First: PTPAKRRSSALWSEMLDITSKESL [M20S]
Second: PTPAKRRSSALWSEMLDITFKESL [M20F]
The protein stability index of the first is higher: 3.71 for the first, 1.88 for the second.

Compared with PTPAKRRSSALWSEMLDITHKESL [M20H], PTPAKRRSSALWSEMLDITTKESL [M20T] is higher in protein stability index: 2.45 for the first, 2.76 for the second.

Going from PTPAKRRSSALWSEMLDITDKESL [M20D] to PTPAKRRSSALWSEMLDITLKESL [M20L], the protein stability index falls from 2.58 to 1.55.

First: PTPAKRRSSALWSEMLDITWKESL [M20W]
Second: PTPAKRRSSALWSEMLDITAKESL [M20A]
The protein stability index of the first is lower: 1.72 for the first, 2.24 for the second.

Compared with PTPAKRRSSALWSEMLDITIKESL [M20I], PTPAKRRSSALWSEMLDITYKESL [M20Y] is higher in protein stability index: 2.09 for the first, 2.64 for the second.

Compared with PTPAKRRSSALWSEMLDITGKESL [M20G], PTPAKRRSSALWSEMLDITEKESL [M20E] is lower in protein stability index: 3.44 for the first, 2.17 for the second.

First: PTPAKRRSSALWSEMLDITVKESL [M20V]
Second: PTPAKRRSSALWSEMLDITNKESL [M20N]
The protein stability index of the first is lower: 2.73 for the first, 2.74 for the second.

Compared with PTPAKRRSSALWSEMLDITRKESL [M20R], PTPAKRRSSYLWSEMLDITMKESL [A10Y] is lower in protein stability index: 3.42 for the first, 1.63 for the second.

First: PTPAKRRSSALWSEMLDIEMKESL [T19E]
Second: PTPAKRRSSALWSEMLDINMKESL [T19N]
The protein stability index of the first is lower: 1.43 for the first, 3.39 for the second.

Going from PTPAKRRSSALWSEMLDIRMKESL [T19R] to PTPAKRRSSALWSEMLDIPMKESL [T19P], the protein stability index falls from 1.81 to 1.7.

Going from PTPAKRRSSALWSEMLDILMKESL [T19L] to PTPAKRRSSALWSEMLDIWMKESL [T19W], the protein stability index falls from 1.66 to 1.61.

First: PTPAKRRSSALWSEMLDIDMKESL [T19D]
Second: PTPAKRRSSALWSEMLDIHMKESL [T19H]
The protein stability index of the first is lower: 2.37 for the first, 2.43 for the second.

Going from PTPAKRRSSALWSEMLDIIMKESL [T19I] to PTPAKRRSSALWSEMLDIQMKESL [T19Q], the protein stability index rises from 1.04 to 1.93.

Compared with PTPAKRRSSALWSEMLDIAMKESL [T19A], PTPAKRRSSALWSEMLDIGMKESL [T19G] is higher in protein stability index: 1.74 for the first, 2.36 for the second.

Compared with PTPAKRRSSALWSEELDITMKESL [M15E], PTPAKRRSSALWSEKLDITMKESL [M15K] is lower in protein stability index: 4.77 for the first, 2.82 for the second.

First: PTPAKRRSSALWSEHLDITMKESL [M15H]
Second: PTPAKRRSSALWSEDLDITMKESL [M15D]
The protein stability index of the first is lower: 2.38 for the first, 3.91 for the second.

Going from PTPAKRRSSALWSEYLDITMKESL [M15Y] to PTPAKRRSSALWSECLDITMKESL [M15C], the protein stability index rises from 1.96 to 2.38.

Going from PTPAKRRSSALWSEPLDITMKESL [M15P] to PTPAKRRSSALWSEWLDITMKESL [M15W], the protein stability index falls from 4.32 to 2.05.

Going from PTPAKRRSSALWSEFLDITMKESL [M15F] to PTPAKRRSSALWSEGLDITMKESL [M15G], the protein stability index rises from 2.04 to 3.83.

Going from PTPAKRRSSALWSEVLDITMKESL [M15V] to PTPAKRRSSALWSELLDITMKESL [M15L], the protein stability index rises from 2.9 to 2.91.

First: PTPAKRRSSALWSEQLDITMKESL [M15Q]
Second: PTPAKRRSSALWSENLDITMKESL [M15N]
The protein stability index of the first is lower: 3 for the first, 3.13 for the second.

First: PTPAKRRSSALWSEILDITMKESL [M15I]
Second: PTPAKRRSSANWSEMLDITMKESL [L11N]
The protein stability index of the first is lower: 2.07 for the first, 3.5 for the second.

Compared with PTPAKRRSSAVWSEMLDITMKESL [L11V], PTPAKRRSSACWSEMLDITMKESL [L11C] is lower in protein stability index: 3.16 for the first, 2.2 for the second.

Going from PTPAKRRSSAPWSEMLDITMKESL [L11P] to PTPAKRRSSATWSEMLDITMKESL [L11T], the protein stability index falls from 2.75 to 1.71.

Going from PTPAKRRSSAKWSEMLDITMKESL [L11K] to PTPAKRRSSAFWSEMLDITMKESL [L11F], the protein stability index rises from 1.62 to 1.98.

Going from PTPAKRRSSAGWSEMLDITMKESL [L11G] to PTPAKRRSSAHWSEMLDITMKESL [L11H], the protein stability index falls from 4.11 to 3.62.

Compared with PTPAKRRSSAQWSEMLDITMKESL [L11Q], PTPAKRRSSAYWSEMLDITMKESL [L11Y] is higher in protein stability index: 2.27 for the first, 2.39 for the second.

First: PTPAKRRSSAEWSEMLDITMKESL [L11E]
Second: PTPAKRRSSAMWSEMLDITMKESL [L11M]
The protein stability index of the first is higher: 4.75 for the first, 2.89 for the second.

First: PTPAKRRSSADWSEMLDITMKESL [L11D]
Second: PTPAKRRSSASWSEMLDITMKESL [L11S]
The protein stability index of the first is higher: 4.29 for the first, 1.94 for the second.

Compared with PTPAKRRSSALWAEMLDITMKESL [S13A], PTPAKRRSSALWYEMLDITMKESL [S13Y] is higher in protein stability index: 1.42 for the first, 2.09 for the second.

Compared with PTPAKRRSSALWQEMLDITMKESL [S13Q], PTPAKRRSSALWGEMLDITMKESL [S13G] is higher in protein stability index: 1.12 for the first, 2.86 for the second.

Going from PTPAKRRSSALWFEMLDITMKESL [S13F] to PTPAKRRSSALWMEMLDITMKESL [S13M], the protein stability index rises from 1.75 to 2.64.

First: PTPAKRRSSALWHEMLDITMKESL [S13H]
Second: PTPAKRRSSALWIEMLDITMKESL [S13I]
The protein stability index of the first is higher: 2.88 for the first, 2.13 for the second.

Compared with PTPAKRRSSALWNEMLDITMKESL [S13N], PTPAKRRSSALWDEMLDITMKESL [S13D] is higher in protein stability index: 2.49 for the first, 3.58 for the second.

Going from PTPAKRRSSALWREMLDITMKESL [S13R] to PTPAKRRSSALWWEMLDITMKESL [S13W], the protein stability index rises from 2.42 to 3.21.

Compared with PTPAKRRSSALWKEMLDITMKESL [S13K], PTPAKRRSSALWPEMLDITMKESL [S13P] is higher in protein stability index: 2.34 for the first, 2.71 for the second.

First: PTPAKRRSSALWSHMLDITMKESL [E14H]
Second: PTPAKRRSSALWSCMLDITMKESL [E14C]
The protein stability index of the first is higher: 2.2 for the first, 1.15 for the second.

Going from PTPAKRRSSALWSPMLDITMKESL [E14P] to PTPAKRRSSALWSNMLDITMKESL [E14N], the protein stability index falls from 3.15 to 2.11.

Going from PTPAKRRSSALWSRMLDITMKESL [E14R] to PTPAKRRSSALWSVMLDITMKESL [E14V], the protein stability index falls from 2.43 to 1.25.

Going from PTPAKRRSSALWSKMLDITMKESL [E14K] to PTPAKRRSSALWSDMLDITMKESL [E14D], the protein stability index falls from 2.87 to 2.75.

Compared with PTPAKRRSSALWSAMLDITMKESL [E14A], PTPAKRRSSALWSSMLDITMKESL [E14S] is higher in protein stability index: 1.55 for the first, 2.35 for the second.

Going from PTPAKRRSSALWSTMLDITMKESL [E14T] to PTPAKRRSSALWSFMLDITMKESL [E14F], the protein stability index falls from 1.93 to 1.58.

Going from PTPAKRRSSALWSYMLDITMKESL [E14Y] to PTPAKRRSSALWSIMLDITMKESL [E14I], the protein stability index rises from 2.2 to 3.13.

Going from PTPAKRRSSALWSLMLDITMKESL [E14L] to PTPAKRRSSALWSWMLDITMKESL [E14W], the protein stability index rises from 1.5 to 1.69.

First: PTPAKRRSSALWSEMLDRTMKESL [I18R]
Second: PTPAKRRSSALWSEMLDSTMKESL [I18S]
The protein stability index of the first is higher: 2.84 for the first, 2.77 for the second.

Going from PTPAKRRSSALWSEMLDCTMKESL [I18C] to PTPAKRRSSALWSEMLDDTMKESL [I18D], the protein stability index rises from 2 to 3.39.
